Holding throughout (experiment): cell-based or functional assay
Experiment [1] has as its target Gal4 activation domain alone (pGAD424 vector, no fusion) (UniProt P04386).
The target of experiment [2] is Gal4ad-ZipA(185-302) fusion (pGAD424 fusion) (Escherichia coli).
Experiment [3] deals with Gal4ad-ZipA(185-328) fusion (pGAD424 fusion) (Escherichia coli) (UniProt P77173).
Experiment [4] has as its target Gal4ad-ZipA(35-185) fusion (pGAD424 fusion) (Escherichia coli).
Experiment [5] concerns the target Gal4ad-ZipA(35-284) fusion (pGAD424 fusion) (Escherichia coli).
In experiment [6] the target is Gal4ad-ZipA(62-328) fusion (pGAD424 fusion) (Escherichia coli).
Chain of Gal4ad-ZipA(62-328) fusion (pGAD424 fusion) (Escherichia coli) (P04386 768-881): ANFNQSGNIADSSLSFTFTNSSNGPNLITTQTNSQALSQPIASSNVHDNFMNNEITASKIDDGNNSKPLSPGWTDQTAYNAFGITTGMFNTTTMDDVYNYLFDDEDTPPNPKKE

Chain of Gal4ad-ZipA(35-185) fusion (pGAD424 fusion) (Escherichia coli) (P04386 768-881): as above
Chain of Gal4 activation domain alone (pGAD424 vector, no fusion) (P04386 768-881 limits assumed): as the sequence (P04386 768-881) above
Chain of Gal4ad-ZipA(185-302) fusion (pGAD424 fusion) (Escherichia coli) (P04386 768-881): as above
Chain of Gal4ad-ZipA(35-284) fusion (pGAD424 fusion) (Escherichia coli) (P04386 768-881): as above

For “Gal4 DNA-binding domain alone (pAS2-1 vector, no fusion) (from UniProt P04386 1-147)”, the beta-galactosidase (lacZ reporter) activity, MUG fluorescence, yeast two-hybrid in experiment [1] was 621 units; in experiment [2], 1120 units; in experiment [3], 877 units; in experiment [4], 930 units; in experiment [5] it was 832 units; in experiment [6] it was 743 units.

For the origin of these results see US20030078191A1.
